{
  "source": "paper PMC6649072",
  "proteins": {"B1": {"name": "DtRha (Dictyoglomus thermophilum H-6-12) (protein)", "chain": "MKSSNIYSPFDLKCEFTTNPLGVDKKNPIFSWKLRHLEKNEKQTAYQVIVSSSLETINDNIGDVWDTGKVLSSEQVIKYEGKELEPCKVYFWKVRWWDSKDQESPFSVVNTFETGLMNEENWKAKWITKKEHKYEVYSPDGAPFGLNYTIAYAPMFRKSFSISKKIKRARVYIAGLGLYELYINGERIGDRVLDPGQTDYKKRVLYTVYDVSKNIRDGKNAIGVILGNGRYVKEYGYDFPKLIIQVLVEYEDDSIEWIVSDESWKTTYGPITLNSLYHGEIYDGRKEIKGWNLPDFDDSTWENAILAEPPGGKLYSEIYPPIRITKTIKPIKMWSPEPGTYVYDFGQNYTGWIKIKVRTNESGKEIRIRHAELTYEDGTLNYSTNRTALATDVYITKGEGYEEYEPRFTYHGFRYVEILGYPGVPTLEDIEGKVVHTAVESNGEFICSNELINKIHHNIIWGQLSNLMSIPTDCPQRDERMGWMGDAQLSAEEAIFNFDMIGFYRKYLNDIRDAQKENGSLSDVIPPYWSIYPGDPAWSTAYITIAWYLYQYYGDKYVLEEHYEGFKKYVEFLKKLAPDYIVSFYKYGDWCQPGTVRPKDNSGELTSTFYFYHDVITLSKIAKLLGKEADYKYYSELADKIKSAFNKKFLKEKAYASIPTELSEENVKALLEKYPEDIKDFLRQQFTILSSLGMFTSQTLNTLPLYLNLVPEDKVQDVLKTLLEDIIIRHDYHLDTGIVATRYIFDVLTSYGYDEVAYKIVNQKTYPSFGYMIEEGATTLWERWEKLTSTGMNSHNHIMFGSVDAWFYRVIAGVRVGEPGWNKIIFEPHPVGDLKYAKARLNTIKGEVEINWQKTENIFSMRISVPVNSEGEVHVPKLFERFVVKEGDNIIYEKKGDLEENEKYIVIRVGSGSYNFYMEKI"}},
  "substrate": "C[C@@H]1O[C@@H](Oc2ccc([N+](=O)[O-])cc2)[C@H](O)[C@H](O)[C@H]1O",
  "experiment": "purified protein",
  "conditions": "pH 5.0, 37 °C (b12; Experimental b31 prints Tris 200 mM, pH 6.0)",
  "data": [
    {"protein": "B1", "values": [
      {"measurement": "Km", "value": "54.00 ± 0.03", "unit": "µM"},
      {"measurement": "kcat", "value": "0.17 ± 0.01", "unit": "s⁻¹"}
    ]}
  ]
}
